Target: human P2X4 (human) (UniProt Q99571)
Assay: cell-based or functional assay

Sequence of human P2X4 (human) (Q99571 whole entry): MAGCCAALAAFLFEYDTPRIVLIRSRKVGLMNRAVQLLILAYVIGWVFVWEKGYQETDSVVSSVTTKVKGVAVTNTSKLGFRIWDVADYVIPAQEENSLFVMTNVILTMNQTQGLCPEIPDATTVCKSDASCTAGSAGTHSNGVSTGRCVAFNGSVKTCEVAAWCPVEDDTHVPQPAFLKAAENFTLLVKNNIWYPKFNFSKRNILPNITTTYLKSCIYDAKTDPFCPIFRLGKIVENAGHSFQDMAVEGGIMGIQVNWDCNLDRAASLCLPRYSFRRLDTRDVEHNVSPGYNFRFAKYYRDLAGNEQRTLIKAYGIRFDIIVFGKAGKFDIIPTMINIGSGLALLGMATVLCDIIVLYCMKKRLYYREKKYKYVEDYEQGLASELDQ

isotype control IgG NIP 228 (antibody) showed a Fraction of control at human P2X4 (Exp 1), mean, at 7.8 µM; QPatch electrophysiology, ATP-evoked currents (fraction of control) of 1.4 and a Fraction of control at human P2X4 (Exp 2), mean, at 7.8 µM; QPatch electrophysiology, ATP-evoked currents (fraction of control) of 1.36.
